Measurements reported in US20020076719A1 (ROCKEFELLER UNIVERSITY, published 2002).
Each block holds one binder with its values, some of them ahead of it.

Key:
untagged mTRF2 = target: T1, untagged mTRF2 (mouse, UniProt O35144 46-541, limits assumed); test: co-immunoprecipitation of in vitro translated 35S-labelled proteins with M2 anti-FLAG antibody
T1 construct: In vitro translated and 35S-methionine labelled; also called mouse TRF2
T1 sequence: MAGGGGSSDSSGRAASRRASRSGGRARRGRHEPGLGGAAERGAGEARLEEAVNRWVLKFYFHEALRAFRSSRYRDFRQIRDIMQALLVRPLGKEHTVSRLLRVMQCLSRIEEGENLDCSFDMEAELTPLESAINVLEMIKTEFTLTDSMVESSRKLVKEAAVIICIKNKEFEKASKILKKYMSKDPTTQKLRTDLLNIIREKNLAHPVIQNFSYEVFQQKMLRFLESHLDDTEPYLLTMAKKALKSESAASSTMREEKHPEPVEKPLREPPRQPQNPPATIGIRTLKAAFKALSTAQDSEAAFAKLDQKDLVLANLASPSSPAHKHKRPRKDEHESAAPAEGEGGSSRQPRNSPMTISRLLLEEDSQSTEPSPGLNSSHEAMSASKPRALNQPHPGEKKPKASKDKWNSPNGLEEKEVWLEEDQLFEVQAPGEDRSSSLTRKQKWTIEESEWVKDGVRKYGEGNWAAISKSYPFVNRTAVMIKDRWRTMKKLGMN
Source text: (§1) FIG. 12: TRF2 interacts with TRF2 but not with TRF1. […] Values represent an average of three to nine independent transformants. FIG. 12B depicts in vitro translated ³⁵S-methionine labelled TRF1 and TRF2 proteins with or without an N-terminal FLAG tag (indicated above the lanes) were immunoprecipitated using the M2 anti-FLAG antibodies and analyzed by autoradiography.
Co-immunoprecipitation experiments. The human and mouse TRF1 constructs used were previously described [Chong et al., Science, 270:1663-1667 (1995); Broccoli et al., Hum. Mol. Genetics, 6:69-76 (1997); Bianchi et al., supra (1997)]. The FLAG-tagged mTRF2 and untagged mTRF2 were translated from cDNAs described above. ³⁵S-methionine labelled proteins [Chong et al., Science, 270:1663-1667 (1995); Broccoli et al., Hum. Mol. Genetics, 6:69-76 (1997); Bianchi et al., supra, (1997)] were immunoprecipitated using the M2 anti-FLAG antibody in buffer D (20 mM Hepes-KOH pH 7.9, 100 mM KCl, 20% glycerol, 0.2 mM EDTA, 0.2 mM EGTA, 0.1 % NP40, 0.1 % Triton-X-100, 0.5 mM DTT, 0.5 mM PMSF) followed by four washes in buffer D with detergents and two washes in buffer D without detergent. Pellets were suspended in SDS/PAGE loading buffer and resolved on a 9% SDS-polyacrylamide gel.

FLAG-tagged mTRF2ΔN-49 = target: T2, FLAG-tagged mTRF2ΔN-49 (mouse, UniProt O35144 94-541); test: gel-shift assay on extracts of transfected HeLa cells; level of the hTRF1 homodimer complex unaltered
T2 construct: also called mTRF2 DN-49; deletion mutant mTRF2ΔN-49
T2 sequence: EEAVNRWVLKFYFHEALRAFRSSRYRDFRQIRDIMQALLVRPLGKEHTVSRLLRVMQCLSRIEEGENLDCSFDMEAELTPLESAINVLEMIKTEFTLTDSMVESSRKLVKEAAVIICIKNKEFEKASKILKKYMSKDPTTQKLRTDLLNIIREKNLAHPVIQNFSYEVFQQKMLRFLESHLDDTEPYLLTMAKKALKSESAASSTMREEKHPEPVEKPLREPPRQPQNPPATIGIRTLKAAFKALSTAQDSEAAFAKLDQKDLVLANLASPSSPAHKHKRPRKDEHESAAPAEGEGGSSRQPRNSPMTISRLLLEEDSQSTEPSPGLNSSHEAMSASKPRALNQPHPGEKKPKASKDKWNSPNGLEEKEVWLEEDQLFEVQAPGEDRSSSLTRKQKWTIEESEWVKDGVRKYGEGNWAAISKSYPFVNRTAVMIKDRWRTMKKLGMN
Source text: This new activity was present in excess over the endogenous hTRF1 activity and could be super-shifted with the FLAG antibody (FIG. 10B, lane 4). The mTRF2ΔN-49 mutant protein was also found to localize to telomeric loci in transfected cells (see below). […] Acids Res., 24:1294-303 (1996)].
Absence of heterodimer formation was further corroborated by co-immunoprecipitation of in vitro translation products (FIG. 12B). […] The lack of heterodimerization is also consistent with the gel-shift assays on extracts from cells over-expressing mTRF2ΔN-49 (FIG. 10B). […] In similar experiments executed with FLAG-tagged hTRF 1, heterodimerization between the endogenous TRF1 and the transfected protein is consistently detected.

[1] = target: T3, hTRF2 dimerization domain (amino acid 45 to amino acid 246), LexA and GAD fusion proteins (human, UniProt Q15554 87-288); test: yeast 2-hybrid, b-galactosidase activity
T3 construct: Built both as a LexA and as a GAD fusion; also called dimerization domain of hTRF2; not shown: two-hybrid fusion partner, LexA or GAD depending on the construct (vectors pBTM116 and pACT2)
T3 sequence: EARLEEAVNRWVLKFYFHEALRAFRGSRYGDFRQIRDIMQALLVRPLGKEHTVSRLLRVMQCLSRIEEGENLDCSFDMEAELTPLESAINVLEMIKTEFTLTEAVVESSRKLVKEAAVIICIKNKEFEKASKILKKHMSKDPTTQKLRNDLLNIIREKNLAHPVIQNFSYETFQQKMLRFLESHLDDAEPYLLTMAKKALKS
Source text: as §1
Next the yeast 2-hybrid assay was used to determine whether the dimerization domains of TRF1 and TRF2 can interact. In a large number of trials, no convincing interactions between these proteins in two settings were detected (FIG. 12A). No activation occurred when the dimerization domain of TRF2 was probed for interactions with full length TRF1. In addition, no significant interactions were observed between fusion proteins containing the isolated TRF1 and TRF2 dimerization domains. The weak b-galactosidase activity detected with these proteins is probably due to the inherent slight transactivation activity of the TRF1 dimerization domain (FIG. 12A) which has been noted previously [Bianchi et al., supra, (1997)].

binding result (untagged mTRF2): no binding
B1: FLAG-mTRF1 (mouse TRF) (other, UniProt P70371 2-421, looked up)
chain: AETVSSAARDAPSREGWTDSDSPEQEEVGDDAELLQCQLQLGTPREMENAELVAEVEAVAAGWMLDFLCLSLCRAFRDGRSEDFRRTRDSAEAIIHGLHRLTAYQLKTVYICQFLTRVASGKALDAQFEVDERITPLESALMIWNSIEKEHDKLHDEIKNLIKIQAVAVCMEIGSFKEAEEVFERIFGDPEFYTPLERKLLKIISQKDVFHSLFQHFSYSCMMEKIQSYVGDVLSEKSSTFLMKAATKVVENEKARTQASKDRPDATNTGMDTEVGLNKEKSVNGQQSTETEPLVDTVSSIRSHKNALSQLKHRRAPSDFSRNEARTGTLQCETTMERNRRTSGRNRLCVSENQPDTDDKSGRRKRQTWLWEEDRILKCGVKKYGEGNWAKILSHYKFNNRTSVMLKDRWRTMKRLKLIS
notes: The co-IP construct is 'previously described'; also called FLAG tagged mouse TRF; not shown: FLAG tag

binding result (FLAG-tagged mTRF2ΔN-49): no binding
B2: hTRF1 (endogenous, HeLa cells) (other)
chain: AEDVSSAAPSPRRCADGRDADPTEEQMAETERNDEEQFECQELLECQVQVGAPEEEEEEEEDAGLVAEAEAVAAGWMLDFLCLSLCRAFRDGRSEDFRRTRNSAEAIIHGLSSLTACQLRTIYICQFLTRIAAGKTLDAQFENDERITPLESALMIWGSIEKEHDKLHEEIQNLIKIQAIAVCMENGNFKEAEEVFERIFGDPNSHMPFKSKLLMIISQKDTFHSFFQHFSYNHMMEKIKSYVNYVLSEKSSTFLMKAAAKVVESKRTRTITSQDKPSGNDVEMETEANLDTRKSVSDKQSAVTESSEGTVSLLRSHKNLFLSKLQHGTQQQDLNKKERRVGTPQSTKKKKESRRATESRIPVSKSQPVTPEKHRARKRQAWLWEEDKNLRSGVRKYGEGNWSKILLHYKFNNRTSVMLKDRWRTMKKLKLISSDSED
notes: also called endogenous TRF1; human TRF1

binding result [1]: no binding
B3: hTRF1 dimerization domain, LexA and GAD fusion proteins (other)
chain: LVAEAEAVAAGWMLDFLCLSLCRAFRDGRSEDFRRTRNSAEAIIHGLSSLTACQLRTIYICQFLTRIAAGKTLDAQFENDERITPLESALMIWGSIEKEHDKLHEEIQNLIKIQAIAVCMENGNFKEAEEVFERIFGDPNSHMPFKSKLLMIISQKDTFHSFFQHFSYNHMMEKIKSYVNYVLSEKSSTFLMKAAAKV
notes: also called isolated TRF1 dimerization domain; homodimerization domain of TRF1; not shown: two-hybrid fusion partner, LexA or GAD
